From patent publication US20250034594A1, “RNA-GUIDED GENOME RECOMBINEERING AT KILOBASE SCALE” (THE BOARD OF TRUSTEES OF THE LELAND STANFORD JUNIOR …, priority 2021, published 2025)

B1: Homolog_T1: RecT, Pantoea stewartii; SEQ ID NO: 115 (protein, listed as Pantoea stewartii)
chain: MSNQPPIASADLQKANTGKQVANKTPEQTLVGFMNQPAMKSQLAAALPRHMTADRMIRIVTTEIRKTPALATCDQSSFIGAVVQCSQLGLEPGSALGHAYLLPFGNGRSKSGQSNVQLIIGYRGMIDLARRSGQIVSLSARVVRADDEFSFEYGLDENLIHRPGENEDAPITHVYAVARLKDGGTQFEVMTVKQIEKVKAQSKASSNGPWVTHWEEMAKKTVIRRLFKYLPVSIEMQKAVILDEKAESDVDQDNASVLSAEYSVLDGSSEE
B2: SSAP_221: SEQ ID NO: 390; Streptomyces sp. 351MFTsu5.1 (protein, listed as Streptomyces sp.)
chain: SQISNAIEKRDQGPGAVIEQYKQELALVAASHVKVDTFARLAVGALRQNPKLAAAAQSNPGSLMSALMTAARLGLEPGTEQFYLRPIKRKGVAEVQGIVGYQGIVELIYNAGAASSVVVEVVRANDQFNYVPGLHERPVHNVDWFGDRGDLVGVYAYAVMAGGATSKVVVLSRTHINRAKAKSDGADSDYSPWRTDEEAMWLKTAARRLGKWVPTSAERLTMPAERTDTVLPVGSAAPALDAADPDEDEGPVDGELEPAGGWPETAQPPQ
B3: SSAP_194: SEQ ID NO: 363; Streptomyces sp. CS014 (protein, listed as Streptomyces sp.)
chain: TENTVTAAVAVRDTGPAAQIEAYRDEYAALVPSHINADQWVRLAVGAIRGNEDLTNAARTDIGVFLRELKTAARLGLEPGTEQFYLTPRKSKAHRGQKIIKGIVGYQGIIELIYRAGAVSSVIVESVRANDTFRYVIGRDERPVHEIDWFGGDRGDLVGVYAYATMKDGATSKVVVLNHAQVMQIRAKSDSKHSEYSPWNTNPESMWLKSAVRQLMKWVPTSAEYMREQLRAQAEVAAEQPPAADLPPMPSVELNDEDEAVDAELVDEEA
B4: SSAP_36: SEQ ID NO: 205 (protein)
chain: SSIAAAAESAEVTPASIINKYRDDIATVLPPKLRERIDRWIRLAIGAVNSNPELISRVRADQGASMMQALMKCAALGHEPGSGLFHLVPKGSRIEGWEDYKGILQRIDRSGVYARTVIGVVYANDEYSYDQNVDERPRHVRATGDRGEPISSYAYAVYPSGAITTVAEATPEQIASSKSKARGADNAASPWRAPGAPMHRKVAVRLLEKHVATSAEDRREPISRSAANDVVIDATADYYQEP
B5: SSAP_229: SEQ ID NO: 398; Amycolatopsis sp. CB00013 (protein, listed as Amycolatopsis sp.)
chain: TTQTVTSAVAQQDSSPAALVRKYRTDFATVLPSHIKPETWLRIATGALRRSSQLAHAAEKNPTSLLVALLDAARKGLEPGTEQYYLVPRKTKRGPEVLGITGYQGEVELMYRAGAVSSVKVEGVREHDTFAYNPGEHDRPVHEINWRANRGDLVLAYAYAYAKMRDGATSNVSVLSADDIAVILSKAEGADSPFSPWQWNPKAMWLKSAAHQLAKWVPTSAERVWQPDGPPLEAPPATPVTLPTVEDVVDAEVVEDWPTTPADTADSEQ
B6: SSAP_309: SEQ ID NO: 478; Paenibacillus sp. FSL R7-0333 (protein, listed as Paenibacillus sp.)
chain: TVAIELQVQETLDRILDSKHDALPSDFNKKRFSENCKAYVADEKDLHKYSPEEIAANLFKGAVLGLDFLAKECHLISGGVELKFQTDYKGEMKLTKKYSVRPLLDVYAKNVREGDEFREEVIEGRPVIHFAPLPFNASSIIGSFAVALFQDGGMVYESIPAGEIEEIRKNYGKSLGDAWDKSQGEMYKRTVLRRLCKTIETDFDAEQRLIYDAGGAFEFTKQPARSRQQSPFNPPEESEVTQDDRVAETDQG
B7: SSAP_15: SEQ ID NO: 184 (protein)
chain: AKNELAKGSYLTDLQKLDGNTLRDFVDPKHQASPQELQALLAIVKGRNLNPFTKEVYFIKYGSAPAQIVVSKEAIMKRAEENPDFDGFEAGIVVETKDGAIERLTGTIVPKSATLRGGWCKVYRKDRSHAIEADADFAYYTTSKNLWQKMPALMIRKVAIVSAFREAFSESVGGLYTADEMQRETQAEVRARKMKEAYEEKLYLLTQMEAKSYKKTKSKNENEAKKTKEAEAIETVEEPTQDGNLEW
B8: SSAP_199: SEQ ID NO: 368; uncultured Mediterranean phage uvMED (protein)
chain: TSSITPLVAMQGTLEKMADKFTEALPRQMDVNKFISVAKLTLNKNPRLLQADKTSLMQTFMKAAQDGLYLDGKEAAAVQYGQSVQYIPMVEGIIKVLHNSGLIKTISAEVVYENDFFDYELGTAPKITHKPLIVGDRGKPMCVYAVAITTNDGEYYEVMNMDQINQCRQVSKASSSPHSPWVKWFDQMAKKTVIHRIAKRLPKNDAINSVVTVDDEPNFQQAVNVTPSEPKDSLSRLRDSIGMEGKDVEQAANDLLEKYNKEAREE
modifications: uncultured Mediterranean phage uvMED
B9: SSAP_198: SEQ ID NO: 367; Streptomyces sp. ms191 (protein, listed as Streptomyces sp.)
chain: VEHYKADLAQVMPSHVKPDTFIRLAVGVLRRDRNLAQAAQNNPAALMGALMDAAQLGLTPGTEQFYLVPRKKAGRLEVQGIRGYQGEIELIYRAGAVSSVIVEVVRQADTFRYSPGRDERPEHEIDWDAEDRGPLRLVYAYAVMKDGATSKVVVLNRAQVMKAKAMSQGSDSAYSPWQKHEEAMWMKTAAHRLTKWVPTSAEYMREQLRAAAEVAAEHRPTPVAAAPGMPSVPGEDEAIEAEFVDEDEVA

What follows are molecules tested on DYNLT1 locus (assay: mKate knock-in gene-editing assay, RecE/RecT homologs, DYNLT1 locus). Details: HEK293 cells, MCP fusion, n=3.
Assay type: cell-based, human
Experimental: (§1) Transfection HEK293T cells were seeded into 96-well plates (Corning) 12-24 hours prior to transfection at a density of 30,000 cells/well, and 250 ng of total DNA was transfected per well. HeLa and HepG2 cells were seeded into 48-well plates (Corning) one day prior to transfection at a density of 50,000 and 30,000 cells/well respectively, and 400 ng of total DNA was transfected per well. Transfections were performed with Lipofectamine 3000 (Life Technologies) following the manufacturer's instructions.
(§2) Fluorescence-activated cell sorting (FACS) mKate knock-in efficiency was analyzed on a CytoFLEX flow cytometer (Beckman Coulter; Stanford Stem Cell FACS Core). 72 hours after transfection, cells were washed once with PBS and dissociated with TrypLE Express Enzyme (Thermo Fisher Scientific). Cell suspension was then transferred to a 96-well U-bottom plate (Thermo Fisher Scientific) and centrifuged at 300×G for 5 minutes. After removing the supernatant, pelleted cells were resuspended with 50 μl 4% FBS in PBS, and cells were sorted within 30 minutes of preparation.
(§3) 15 different species of microbes having RecE/RecT proteins were selected for a screen of various RecE and RecT proteins across the microbial kingdom (Table 3). Each protein was codon-optimized and synthesized. As previously described for E. coli RecE/RecT based REDIT systems, each protein was fused via E-XTEN linker to the MCP protein with additional nuclear localization signal. mKate knock-in gene-editing assay was used to measure efficiencies at DYNLT1 locus (FIG. 26A, Table 4) and HSP90AA1 locus (FIG. 26B, Table 4).
In the case of B1, the “Mean mKate+ (%), DYNLT1” value is reported as 11.7333%.

The molecules below were run on HSP90AA1 locus (assay: mKate knock-in gene-editing assay, RecE/RecT homologs, HSP90AA1 locus). Details: HEK293 cells, MCP fusion, n=3.
Assay type: cell-based, human
Experimental: as §1, §2, §3
With B1 the “Mean mKate+ (%), HSP90AA1” value was 8.0733%.

The molecules below were run on endogenous genome targets (ACTB, HSP90AA1) (assay: Arrayed SSAP library screening, mKate knock-in assay (editing efficiency)). Details: fold over negative control (Flag_HA); average of HSP90 and ACTB; 3 days after transfection.
Assay type: cell-based
Procedure, shortened: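 Mammalian cells in duplicate were transfected with SSAP-encoding plasmids, with about 50% transfection efficiency. mKate knock-in positive cells and viability, by flow-cytometric live counts, were quantified three days later. RecT SSAP served as positive control and Flag-HA plasmid as negative control.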
In the case of B2, the “Editing Efficiency (Normalized, Average, two targets)” value is reported as 4.587. For B3, the “Editing Efficiency (Normalized, Average, two targets)” value was 4.924. For B4, the “Editing Efficiency (Normalized, Average, two targets)” value was 6.383. For B5, the “Editing Efficiency (Normalized, Average, two targets)” value was 3.971. B6 was tested, and the “Editing Efficiency (Normalized, Average, two targets)” value was 3.992. For B7, the “Editing Efficiency (Normalized, Average, two targets)” value was 5.477. In the case of B8, the “Editing Efficiency (Normalized, Average, two targets)” value is reported as 4.602. B9 was tested, and the “Editing Efficiency (Normalized, Average, two targets)” value was 5.524.

Same assay, conditions: percent of mKate knock-in; average of HSP90 and ACTB; 3 days after transfection
With B2 the “Editing Efficiency (Absolute, Average, two targets)” value was 11.35. In the case of B3, the “Editing Efficiency (Absolute, Average, two targets)” value is reported as 12.175. For B4, the “Editing Efficiency (Absolute, Average, two targets)” value was 15.8. In the case of B5, the “Editing Efficiency (Absolute, Average, two targets)” value is reported as 9.8525. B6 was tested, and the “Editing Efficiency (Absolute, Average, two targets)” value was 9.885. B7 was tested, and the “Editing Efficiency (Absolute, Average, two targets)” value was 13.55. With B8 the “Editing Efficiency (Absolute, Average, two targets)” value was 11.4025. For B9, the “Editing Efficiency (Absolute, Average, two targets)” value was 13.65.

The molecules below were run on mammalian cells (assay: Arrayed SSAP library screening, cell viability by live cell counts via flow cytometry). Details: not given.
Assay type: cell-based
Procedure, shortened: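 Each SSAP plasmid transfected in duplicate (~50% efficiency), with RecT SSAP as positive and Flag-HA as negative control. After three days, mKate-positive cells and viability by flow-cytometric live cell counts were quantified to gauge SSAP fitness effects.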
For B2, the “Cell Viability (Average, two targets)” value was 0.9772. B3 was tested, and the “Cell Viability (Average, two targets)” value was 1.139. In the case of B4, the “Cell Viability (Average, two targets)” value is reported as 0.9418. B5 was tested, and the “Cell Viability (Average, two targets)” value was 0.8776. In the case of B6, the “Cell Viability (Average, two targets)” value is reported as 0.9224. In the case of B7, the “Cell Viability (Average, two targets)” value is reported as 1.226. B9 was tested, and the “Cell Viability (Average, two targets)” value was 0.4444.

Same assay, conditions: live cell counts via flow cytometry; average of HSP90 and ACTB
With B8 the “Cell Viability (Average, two targets)” value was 0.5186.

Each molecule was assayed on gene editing with Cas9 (assay: Screen of 322 new SSAP proteins, gene editing activity with Cas9 (Table 5)). Details: not given.
Assay type: cell-based
Parameters: Cas9 with SSAP activity: scale not given here
Procedure, shortened: (§4)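 Editing screen of 322 newly identified, synthesized SSAPs, each co-used with Cas9 and with dCas9.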
In the case of B2, the “Cas9 with SSAP activity” value is reported as −4.494. B3 was tested, and the “Cas9 with SSAP activity” value was 2.727. In the case of B4, the “Cas9 with SSAP activity” value is reported as −4.118. For B5, the “Cas9 with SSAP activity” value was −2.969. For B6, the “Cas9 with SSAP activity” value was −3.975. With B7 the “Cas9 with SSAP activity” value was −1.876. In the case of B8, the “Cas9 with SSAP activity” value is reported as −7.274. In the case of B9, the “Cas9 with SSAP activity” value is reported as −4.061.

Same assay, conditions: normalized
B2 was tested, and the “Cas9 with SSAP activity (normalized)” value was −0.728. With B3 the “Cas9 with SSAP activity (normalized)” value was 3.516. For B4, the “Cas9 with SSAP activity (normalized)” value was −0.619. In the case of B5, the “Cas9 with SSAP activity (normalized)” value is reported as −0.509. In the case of B6, the “Cas9 with SSAP activity (normalized)” value is reported as −1.807. B7 was tested, and the “Cas9 with SSAP activity (normalized)” value was −0.850. With B8 the “Cas9 with SSAP activity (normalized)” value was −1.400. In the case of B9, the “Cas9 with SSAP activity (normalized)” value is reported as −0.571.

These molecules were tested on gene editing with dCas9 (assay: Screen of 322 new SSAP proteins, gene editing activity with dCas9 (Table 5)). Details: not given.
Assay type: cell-based
Parameters: dCas9 with SSAP activity: scale not given here
Procedure, shortened: as §4
In the case of B2, the “dCas9 with SSAP activity” value is reported as −8.056. For B3, the “dCas9 with SSAP activity” value was −8.790. B4 was tested, and the “dCas9 with SSAP activity” value was −8.909. For B5, the “dCas9 with SSAP activity” value was −9.275. With B6 the “dCas9 with SSAP activity” value was −9.420. B7 was tested, and the “dCas9 with SSAP activity” value was −0.701. B8 was tested, and the “dCas9 with SSAP activity” value was −2.480. B9 was tested, and the “dCas9 with SSAP activity” value was −2.578.

Same assay, conditions: normalized
With B4 the “dCas9 with SSAP activity (normalized)” value was −1.787. In the case of B6, the “dCas9 with SSAP activity (normalized)” value is reported as −2.412. In the case of B7, the “dCas9 with SSAP activity (normalized)” value is reported as −2.250. B8 was tested, and the “dCas9 with SSAP activity (normalized)” value was −0.364. With B9 the “dCas9 with SSAP activity (normalized)” value was −0.849.

What follows are molecules tested on gene editing with Cas9 and dCas9 (assay: Screen of 322 new SSAP proteins, activity across all experiments (Cas9 and dCas9, Table 5)). Details: not given.
Assay type: cell-based
Parameters: scale not given here
Procedure, shortened: as §4
In the case of B2, the “Activity across all experiments” value is reported as −6.275. B3 was tested, and the “Activity across all experiments” value was −3.031. B4 was tested, and the “Activity across all experiments” value was −6.514. For B5, the “Activity across all experiments” value was −6.122. B6 was tested, and the “Activity across all experiments” value was −6.697. For B7, the “Activity across all experiments” value was −1.288. In the case of B8, the “Activity across all experiments” value is reported as −4.877. With B9 the “Activity across all experiments” value was −3.320.
